In US20050118674A1, “Engineering of Controlled Deamidation Rates in Peptides, Proteins, and Similar Structures” (priority 2003, published 2005):

Experiment: First-order nonenzymatic deamidation of pentapeptides in Tris buffer
Format: physicochemical
Details: 0.15 M Tris HCl; for First-Order Deamidation Halftimes of GlyXxxAsnYyyGly: pH 7.4, 37.0° C., Asn pentapeptides; for First-Order Deamidation Halftimes of GlyXxxGlnYyyGly: pH 7.4, 37.0 ° C., Gln pentapeptides, 52 values measured, rest derived from surface fitting
Procedure: One of the discoveries made was that the sequence dependence of deamidation is much richer and covers a wider range than previously thought. In 37° C., pH 7.4, 0.15 M Tris buffer, the combination of XxxAsnYyy and XxxGlnYyy sequences where Xxx and Yyy are any of the naturally occuring amino acids covers a range from less than 1 day to over 15,000 days with the entire range in between available.
It is based on pentapeptide rates measure in 37° C., pH 7.4, 0.15 M Tris buffer. The applicability of a pentapeptide model to sequence dependence was verified in a separate set of experiments. All values listed in this table are experimental except for the four values in boxes, which were estimated from the rest of the data.
It is also based on pentapeptide rates measure in 37° C., pH 7.4, 0.15 M Tris buffer. In this case, the 52 values shown in bold were measured, and the rest of the values were derived from surface fitting.
Deamidation rates are affected by a wide variety of parameters, including, pH, Temperature, Ionic Strength, and Buffer Ions. These rates are measured under pH and Temperature conditions that are applicable to biological systems. The buffer type and concentration were chosen to minimize ion affects to the extent possible given the experimental limitations. Modification of these conditions will change the rates in Tables 1 and 2. As long as the conditions are not taken to extremes (i.e. high temperature, or strongly acidic or basic conditions) the qualitative sequence dependence should remain the same and the rates reported here can be used with necessary adjustments.

Row | Substance | First-Order Deamidation Halftimes of GlyXxxAsnYyyGly [days] | First-Order Deamidation Halftimes of GlyXxxGlnYyyGly [days]
1 | GlyCysAsnMetGly (GCNMG; printed: GlyCysAsnMetGly) | 64.5 | 
2 | GlyCysAsnPheGly (GCNFG; printed: GlyCysAsnPheGly) | 73.9 | 
3 | GlyCysAsnProGly (GCNPG; printed: GlyCysAsnProGly) | 1550 | 
4 | GlyCysAsnSerGly (GCNSG; printed: GlyCysAsnSerGly) | 19.0 | 
5 | GlyCysAsnThrGly (GCNTG; printed: GlyCysAsnThrGly) | 48.7 | 
6 | GlyCysAsnTrpGly (GCNWG; printed: GlyCysAsnTrpGly) | 111 | 
7 | GlyCysAsnTyrGly (GCNYG; printed: GlyCysAsnTyrGly) | 83.9 | 
8 | GlyCysAsnValGly (GCNVG; printed: GlyCysAsnValGly) | 229 | 
9 | GlyCysGlnAlaGly (GCQAG; printed: GlyCysGlnAlaGly) |  | 4100
10 | GlyCysGlnArgGly (GCQRG; printed: GlyCysGlnArgGly) |  | 5100
11 | GlyCysGlnAspGly (GCQDG; printed: GlyCysGlnAspGly) |  | 6100
12 | GlyCysGlnCysGly (GCQCG; printed: GlyCysGlnCysGly) |  | 800
13 | GlyCysGlnGluGly (GCQEG; printed: GlyCysGlnGluGly) |  | 5600
14 | GlyCysGlnGlyGly (GCQGG; printed: GlyCysGlnGlyGly) |  | 560
15 | GlyCysGlnHisGly (GCQHG; printed: GlyCysGlnHisGly) |  | 4200
16 | GlyCysGlnIleGly (GCQIG; printed: GlyCysGlnIleGly) |  | 4900
17 | GlyCysGlnLeuGly (GCQLG; printed: GlyCysGlnLeuGly) |  | 4800
18 | GlyCysGlnLysGly (GCQKG; printed: GlyCysGlnLysGly) |  | 4400
19 | GlyCysGlnMetGly (GCQMG; printed: GlyCysGlnMetGly) |  | 3200
20 | GlyCysGlnPheGly (GCQFG; printed: GlyCysGlnPheGly) |  | 6500
21 | GlyCysGlnProGly (GCQPG; printed: GlyCysGlnProGly) |  | 7100
22 | GlyCysGlnSerGly (GCQSG; printed: GlyCysGlnSerGly) |  | 3800
23 | GlyCysGlnThrGly (GCQTG; printed: GlyCysGlnThrGly) |  | 3500
24 | GlyCysGlnTrpGly (GCQWG; printed: GlyCysGlnTrpGly) |  | 9100
25 | GlyCysGlnTyrGly (GCQYG; printed: GlyCysGlnTyrGly) |  | 7900

Row | Substance | First-Order Deamidation Halftimes of GlyXxxAsnYyyGly [days] | First-Order Deamidation Halftimes of GlyXxxGlnYyyGly [days]
26 | GlyCysGlnValGly (GCQVG; printed: GlyCysGlnValGly) |  | 5000
27 | GlyGluAsnAlaGly (GENAG; printed: GlyGluAsnAlaGly) | 25.8 | 
28 | GlyGluAsnAmCysGly | 32.1 | 
29 | GlyGluAsnArgGly (GENRG; printed: GlyGluAsnArgGly) | 80.9 | 
30 | GlyGluAsnAspGly (GENDG; printed: GlyGluAsnAspGly) | 32.0 | 
31 | GlyGluAsnCysGly (GENCG; printed: GlyGluAsnCysGly) | 44.2 | 
32 | GlyGluAsnGluGly (GENEG; printed: GlyGluAsnGluGly) | 60.3 | 
33 | GlyGluAsnGlyGly (GENGG; printed: GlyGluAsnGlyGly) | 1.45 | 
34 | GlyGluAsnHisGly (GENHG; printed: GlyGluAsnHisGly) | 9.0 | 
35 | GlyGluAsnIleGly (GENIG; printed: GlyGluAsnIleGly) | 279 | 
36 | GlyGluAsnLeuGly (GENLG; printed: GlyGluAsnLeuGly) | 130 | 
37 | GlyGluAsnLysGly (GENKG; printed: GlyGluAsnLysGly) | 77.8 | 
38 | GlyGluAsnMetGly (GENMG; printed: GlyGluAsnMetGly) | 59.6 | 
39 | GlyGluAsnPheGly (GENFG; printed: GlyGluAsnPheGly) | 70.2 | 
40 | GlyGluAsnSerGly (GENSG; printed: GlyGluAsnSerGly) | 16.4 | 
41 | GlyGluAsnThrGly (GENTG; printed: GlyGluAsnThrGly) | 36.8 | 
42 | GlyGluAsnTrpGly (GENWG; printed: GlyGluAsnTrpGly) | 98.4 | 
43 | GlyGluAsnTyrGly (GENYG; printed: GlyGluAsnTyrGly) | 94.5 | 
44 | GlyGluAsnValGly (GENVG; printed: GlyGluAsnValGly) | 268 | 
45 | GlyGluGlnAlaGly (GEQAG; printed: GlyGluGlnAlaGly) |  | 7100
46 | GlyGluGlnArgGly (GEQRG; printed: GlyGluGlnArgGly) |  | 5200
47 | GlyGluGlnAspGly (GEQDG; printed: GlyGluGlnAspGly) |  | 8300
48 | GlyGluGlnCysGly (GEQCG; printed: GlyGluGlnCysGly) |  | 2100
49 | GlyGluGlnGluGly (GEQEG; printed: GlyGluGlnGluGly) |  | 8200
50 | GlyGluGlnGlyGly (GEQGG; printed: GlyGluGlnGlyGly) |  | 750

Row | Substance | First-Order Deamidation Halftimes of GlyXxxAsnYyyGly [days] | First-Order Deamidation Halftimes of GlyXxxGlnYyyGly [days]
51 | GlyGluGlnHisGly (GEQHG; printed: GlyGluGlnHisGly) |  | 2500
52 | GlyGluGlnIleGly (GEQIG; printed: GlyGluGlnIleGly) |  | 4200
53 | GlyGluGlnLeuGly (GEQLG; printed: GlyGluGlnLeuGly) |  | 4300
54 | GlyGluGlnLysGly (GEQKG; printed: GlyGluGlnLysGly) |  | 4600
55 | GlyGluGlnMetGly (GEQMG; printed: GlyGluGlnMetGly) |  | 5200
56 | GlyGluGlnPheGly (GEQFG; printed: GlyGluGlnPheGly) |  | 8400
57 | GlyGluGlnProGly (GEQPG; printed: GlyGluGlnProGly) |  | 10000
58 | GlyGluGlnSerGly (GEQSG; printed: GlyGluGlnSerGly) |  | 6100
59 | GlyGluGlnThrGly (GEQTG; printed: GlyGluGlnThrGly) |  | 5400
60 | GlyGluGlnTrpGly (GEQWG; printed: GlyGluGlnTrpGly) |  | 17000
61 | GlyGluGlnTyrGly (GEQYG; printed: GlyGluGlnTyrGly) |  | 13000
62 | GlyGluGlnValGly (GEQVG; printed: GlyGluGlnValGly) |  | 6400
63 | GlyGlyAsnAlaGly (GGNAG; printed: GlyGlyAsnAlaGly) | 21.1 | 
64 | GlyGlyAsnAmCysGly | 27.6 | 
65 | GlyGlyAsnArgGly (GGNRG; printed: GlyGlyAsnArgGly) | 57.8 | 
66 | GlyGlyAsnAspGly (GGNDG; printed: GlyGlyAsnAspGly) | 28.0 | 
67 | GlyGlyAsnCysGly (GGNCG; printed: GlyGlyAsnCysGly) | 40.6 | 
68 | GlyGlyAsnGluGly (GGNEG; printed: GlyGlyAsnGluGly) | 73.9 | 
69 | GlyGlyAsnGlyGly (GGNGG; printed: GlyGlyAsnGlyGly) | 1.03 | 
70 | GlyGlyAsnHisGly (GGNHG; printed: GlyGlyAsnHisGly) | 9.2 | 
71 | GlyGlyAsnIleGly (GGNIG; printed: GlyGlyAsnIleGly) | 287 | 
72 | GlyGlyAsnLeuGly (GGNLG; printed: GlyGlyAsnLeuGly) | 104 | 
73 | GlyGlyAsnLysGly (GGNKG; printed: GlyGlyAsnLysGly) | 48.2 | 
74 | GlyGlyAsnMetGly (GGNMG; printed: GlyGlyAsnMetGly) | 50.4 | 
